The chains are these.
B1: Xi2H8 (antibody, human IgG4 S228P, kappa, V domains shown)
VH: QVQLKESGPGLVAPSQSLSITCTVSGFSLTNYGVHWVRQPPGKGLEWLGIIWAGGSTNYNSALMSRLSISKDNSKSQVFLKMNSLQTDDTAMYYCARDDYASMDYWGQGTSVTVSS
VL: DAFMTQTPLSLPVSLGDQASISCRSSQSLVHSNGNTYLHWYLQKPGQSPKLLIYKVSNRFSGVPDRFSGSGSGTDFTLKISRVEAEDLGVYFCSQSTHVPYTLGGGTKLEIKR
notes: mouse variable regions on human IgG4 (EU S228P) and human kappa constant regions; also called chimeric 2H8 antibody
B2: Xi16E5 (antibody, human IgG4 S228P, kappa, V domains shown)
VH: EVQLQQSGPELKKPGETVKISCKASGYTFTNYGMNWVKQVPGKGLKWMGWINTNTGEPTYAEEFKGRFAFSLETSARTAFLQINNLKNEDTATYFCTRFSHLRGPMDYWGQGASVTVSS
VL: B1 VL with F3V, N35Y, V83L, Y101P, L103F
notes: mouse variable regions on human IgG4 (EU S228P) and human kappa constant regions; also called chimeric 16E5 antibody
B3: Xi3F10 (antibody, human IgG4 S228P, kappa, V domains shown)
VH: EVQLQQSVAELMKPGASVKIYCKATGYTFSRYWIEWVKQRPGHGLEWIGEFIPGSDTTNFNEKFKGKATFTAEISSNTAYMQLSSLTSEDSAVYFCARGGLRRMDYWGQGTSVTVSS
VL: DIVMTQTPAIMSASPGEKVTMTCRASSSVSSTYLHWYQQKSGASPKLWIYTTSTLASGVPARFSGSGSGTSYSLTISSVEAEDAATYYCQQFSDSTWTFGGGTKLEIKR
notes: mouse variable regions on human IgG4 (EU S228P) and human kappa constant regions; also called chimeric 3F10 antibody
B4: Xi14A9 (antibody, human IgG4 S228P, kappa, V domains shown)
VH: EVQLQQSGAEVARPGASVKLSCTVSGFNIEDDYIEWVKQRPEQGLEWIGRIDPANDKTKYAPKFQDKATITGDTSSNTAYLQLSSLTSEDTAVYYCTRPGLRRYYSMDYWGQGTSVTVSS
VL: NIVLTQSPKSMSMSVGERVTLSCKASENVVSYVSWYQQKPEQSPKLLIYGASNRYTGVPDRFIGSGSSTDFTLIISSFQPEDLADYHCGQSYSYPLTFGAGTKLELKR
notes: mouse variable regions on human IgG4 (EU S228P) and human kappa constant regions; also called chimeric 14A9 antibody
B5: Xi2B2 (antibody, human IgG4 S228P, kappa, V domains shown)
VH: EVMLVESGGGLVQPGGSLKLSCAASGFTFSNYYMSWVRQTPEKRLEWVAYISSGGGSTYYPDSVKGRFTISRDNAKNTLYLQMSSLKSEDTAMYYCAWFAYWGQGTLVTVSA
VL: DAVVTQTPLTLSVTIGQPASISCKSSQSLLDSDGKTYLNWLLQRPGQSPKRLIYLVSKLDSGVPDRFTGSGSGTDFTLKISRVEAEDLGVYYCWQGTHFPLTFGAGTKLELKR
notes: mouse variable regions on human IgG4 (EU S228P) and human kappa constant regions; also called chimeric 2B2 antibody

Numbering of substitutions follows the chain as printed. Names and notes keep the numbering of the source.

T4 sequence (A0A2K5X523 entry or part of it limits assumed): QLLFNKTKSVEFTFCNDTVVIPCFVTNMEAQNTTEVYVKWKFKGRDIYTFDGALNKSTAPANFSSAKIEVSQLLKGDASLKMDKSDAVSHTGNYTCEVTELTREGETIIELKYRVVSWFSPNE

In the first assay the target is T1, CD47 on the red cell surface (Homo sapiens (Human), UniProt Q08722 19-323). The assay is described as follows: flow cytometry on fixed red cells, antibody 1 µg/mL.
Protocol: (§1) Anticoagulated blood was collected and well mixed with an equal amount of normal saline. The mixture was centrifuged at 2000 rpm/min for 5 min, and the supernatant was removed. […] In the first two washings, the mixture was centrifuged at 2000 rpm/min for 5 min, and in the last washing, the mixture was centrifuged at 2000 rpm/min for 10 min, and the supernatant was removed.
The molecule B1 returned an MFI of 952 MFI.

With B2, the MFI was 1310 MFI.

On to B3, for which the MFI was 36100 MFI.

For the molecule B4, the MFI turned out to be 26500 MFI.

In the case of B5, the MFI was 656 MFI.

Another assay addresses T2, CD47 on Jurkat cells (UniProt Q08722 19-323, limits assumed).
T2 construct: whole, on cells; Jurkat is a human T cell line
The assay is described as follows: flow cytometry on Jurkat cells, competition with Human-SIRPα-mFc.
Protocol: The plate was incubated at room temperature for 1 h. After the plate was washed twice with PBS buffer, 100 μL of anti-CD47 chimeric antibodies (Table 7) was added to each well. 4-fold dilution was performed with PBS buffer from a starting concentration of 20 μg/mL, with 8 gradients obtained. The plate was incubated at room temperature for 1-2 h. […] The plate was incubated at room temperature for 1 h and washed 3 times with PBS buffer.
B1: the IC50 is 27 µg/mL.

Consider B2, for which the IC50 was 4.86 µg/mL.

With B3, the IC50 is 0.358 µg/mL.

With B4, the IC50 came to 1.28 µg/mL.

For another assay, the target named is T3, human CD47 protein, His Tag (ACRObiosystems, Cat. No. CD7-H5227) (human, UniProt Q08722 19-139).
T3 construct: bought reagent; also called CD47-His; hCD47-His Tag; not shown: His tag
The assay is described as follows: Biacore SPR, 25 C, antibody captured on CM5 chip; Biacore at 25 C; antibody captured on the chip, soluble CD47-His as analyte.
B1 registered a Kd of 0.35 nM.

The next assay has as its target T3, human CD47 protein, His Tag …. Kind of assay: ELISA, plate coated with CD47-His.
Protocol: An ELISA binding assay was performed based on human CD47 protein and anti-CD47 chimeric antibodies or anti-CD47 humanized antibodies. […] The wells were aspirated, and non-specific binding sites were blocked by adding 100 L/well of a blocking solution (PBS with 1% (w/v) bovine serum albumin (BSA, Sigma, Cat. No. B2064-100G)) and incubating the plate at 37° C. for 1 h. After the 96-well plate was washed three times with a washing buffer (PBS with 0.01% (w/v) Tween 20 (Sigma, Cat. No. P9416-100ML)), 100 μL/well of 1:4 serial dilutions (from 30 g/mL) of anti-CD47 antibodies (see Table 3 for chimeric antibodies, and see Table 4 for humanized antibodies) in blocking solution were added, and the plate was incubated at room temperature for 2 h. […] After the 96-well plate was washed, 100 μL/well of a substrate solution TMB (TIANGEN, Cat. No. PA107-01) was added, and the 96-well plate was incubated at room temperature for 10 min. 100 μL/well of a stop solution (1 M H₂SO₄) was added to stop the reaction. Colorimetric signals were generated and read at 450 nm using a multifunctional microplate reader (manufacturer: PerkinElmer; model: EnVision). Data were analyzed using GraphPad Prism5, and EC₅₀ was calculated.
Molecule B2 showed an EC50 of 0.0879 µg/mL.

Molecule B3 registered a half-maximal effective concentration (EC50) of 1.11 µg/mL.

B4 had an EC50 of 0.273 µg/mL.

On to B5, for which the half-maximal effective concentration (EC50) amounted to 0.349 µg/mL.

The target is the same in the next assay. Kind of assay: ELISA, CD47-His coated, competition with Human-SIRPα-mFc; Blocking ELISA; CD47-His coated on plate, SIRPα-mFc bound first, antibody from 20 µg/mL, mouse Fc detected.
Protocol: (§2) The plate was let stand at 2-8° C. overnight. The wells were aspirated to remove the coating buffer and blocked with 100 μL/well of a blocking solution (PBS with 1% (w/v) bovine serum albumin (BSA, Sigma, Cat. No. B2064-100G)) by incubation at 37° C. for 1 h. The 96-well plate was washed with a washing buffer (PBS with 0.01% (w/v) Tween 20 (Sigma, Cat. No. P9416-100ML)). […] After the 96-well plate was washed with PBS washing buffer, anti-CD47 chimeric antibodies or anti-CD47 humanized antibodies (see Table 8 for chimeric antibodies, and see Table 9 for humanized antibodies) were added. 4-fold dilution was performed with PBS buffer from a starting concentration of 20 μg/mL, with 8 gradients obtained. The plate was incubated at room temperature for 1.5 h. […] After the 96-well plate was washed with PBS buffer, 100 μL/well of a substrate solution TMB (TIANGEN, Cat. No. PA107-01) was added, and the plate was incubated at room temperature for color development for 10 min. 100 μL/well of 1 M H₂SO₄ was added to stop the reaction. Colorimetric signals were generated and read at 450 nm using a multifunctional microplate reader (manufacturer: PerkinElmer; model: EnVision). Data were analyzed using GraphPad Prism5, and EC₅₀ was calculated.
Turning to B1, the half-maximal inhibitory concentration (IC50) was 0.00468 µg/mL.

The target is the same in another assay. Kind of assay: ELISA, CD47-His coated, competition with Human-SIRPα-mFc.
Protocol: as §2
Consider B2, for which the 50% inhibitory concentration (IC50) is 0.946 µg/mL.

In turn, B3 showed a half-inhibitory concentration (IC50) of 7.91 µg/mL.

As to B4, the half-maximal inhibitory concentration (IC50) was found to be 0.444 µg/mL.

In a further assay the target is T1, CD47 on the red cell surface. The assay is described as follows: flow cytometry on fixed red cells, antibody 10 µg/mL.
Protocol: as §1
B1 came in with an MFI of 5300 MFI.

In turn, B2 yielded an MFI of 3320 MFI.

Consider B3, for which the MFI is 61800 MFI.

B4 came in with an MFI of 32800 MFI.

B5 yielded an MFI of 608 MFI.

The target in another assay is CD47 on HL60 cells (UniProt Q08722 19-323, limits assumed). Kind of assay: cell-based or functional assay.
As for B1, the “rate of phagocytosis, antibody 1 µg/mL” value worked out at 7.1% and the “rate of phagocytosis, antibody 10 µg/mL” value stood at 3.5%.

B2: the “rate of phagocytosis, antibody 1 µg/mL” value was determined as 11.5% and the “rate of phagocytosis, antibody 10 µg/mL” value amounted to 28.8%.

On to B3, for which the “rate of phagocytosis, antibody 1 µg/mL” value is 65.7% and the “rate of phagocytosis, antibody 10 µg/mL” value was 59.8%.

With B4, the “rate of phagocytosis, antibody 1 µg/mL” value worked out at 54.2% and the “rate of phagocytosis, antibody 10 µg/mL” value worked out at 44.7%.

As to B5, the “rate of phagocytosis, antibody 1 µg/mL” value is 7.3% and the “rate of phagocytosis, antibody 10 µg/mL” value came to 4.1%.

The next assay has as its target T4, cynomolgus/rhesus macaque CD47 protein, His Tag (ACRObiosystems, Cat. No. CD7-C52H1) (cynomolgus monkey (cynomolgus/rhesus …, UniProt A0A2K5X523 19-141)).
T4 construct: bought reagent; also called Cynomolgus monkey CD47 protein
The assay is described as follows: Biacore SPR, 25 C, antibody captured on CM5 chip.
As for B1, the Kd was 1.25 nM.

For the molecule B2, the Kd came out at 2.92 nM.

For B3, the Kd stood at 1.04 nM.

For B4, the Kd turned out to be 1.58 nM.

In turn, B5 came in with a dissociation constant (Kd) of 1.2 nM.

The target of the next assay is T3, human CD47 protein, His Tag …. The assay is described as follows: Biacore SPR, 25 C, antibody captured on CM5 chip.
With B2, the Kd amounted to 9.06 nM.

On to B3, for which the Kd was 0.767 nM.

B4: binding was put at a Kd of 2.35 nM.

As to B5, the dissociation constant (Kd) is 7.48 nM.

Another assay addresses T5, human CD47 protein on CHO-K1-CD47 cells (human, UniProt Q08722 19-323).
T5 construct: whole, on cells; also called CHO-K1 cells expressing human CD47 protein
The assay is described as follows: cell binding, CHO-K1-CD47 cells, high content imaging.
Protocol: A cell binding assay of anti-CD47 antibodies (chimeric or humanized) was performed based on the binding to a CHO-K1 cell line stably expressing CD47. CHO-K1-CD47 cells (CHO-K1 cells expressing human CD47 protein) were added to each well of a 96-well plate (Eppendorf, Cat. No. C030730.119) at 1.2×10⁴ cells per well and incubated with anti-CD47 antibodies (20 μg/mL, 1:4 dilution in PBS) at room temperature for 1-2 h. […] The cells were incubated at room temperature for 30 min. The cells were washed three times with PBS buffer. A nuclear dye Hoechst (Sigma, Cat. No. B2261) was diluted with PBS buffer at a dilution ratio of 1:500 and then added to each well at 100 μL/well for staining for 10 min. The cells were washed 3 times with PBS and analyzed using a high content screening system (manufacturer: PerkinElmer; model: Operetta).
Regarding B2, the EC50 is 2.03 µg/mL.

On to B3, for which the concentration giving a half-maximal response (EC50) stood at 19.8 µg/mL.

In turn, B4 had an EC50 of 0.541 µg/mL.

Molecule B5 yielded an EC50 of 30.8 µg/mL.

Source of the values: patent US20240294635A1 (CHIA TAI TIANQING PHARMACEUTICAL GROUP, published 2024).
